Blank lines part the entries; values can stand above or below the molecule they belong to.
Key:
[1] = biological target: T1, Flag-tagged T-bet (wild type), immunoprecipitated from 293T cells (UniProt Q9JKD8)
T1 sequence: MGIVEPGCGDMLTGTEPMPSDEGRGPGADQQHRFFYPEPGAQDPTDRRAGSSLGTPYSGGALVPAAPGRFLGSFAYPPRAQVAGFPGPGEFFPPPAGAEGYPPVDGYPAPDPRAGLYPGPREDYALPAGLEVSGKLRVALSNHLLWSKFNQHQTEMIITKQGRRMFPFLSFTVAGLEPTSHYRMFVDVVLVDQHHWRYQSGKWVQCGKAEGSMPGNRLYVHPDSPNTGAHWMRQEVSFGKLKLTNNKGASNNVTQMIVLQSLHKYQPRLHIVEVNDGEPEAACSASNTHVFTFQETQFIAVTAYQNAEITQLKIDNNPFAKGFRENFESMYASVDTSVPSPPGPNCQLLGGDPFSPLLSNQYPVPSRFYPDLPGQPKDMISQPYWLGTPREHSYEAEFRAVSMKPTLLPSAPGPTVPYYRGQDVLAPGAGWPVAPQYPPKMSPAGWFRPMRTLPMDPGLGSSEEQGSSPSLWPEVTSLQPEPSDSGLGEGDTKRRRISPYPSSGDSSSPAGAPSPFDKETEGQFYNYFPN

[2] = biological target: T2, Flag-tagged T-bet S498A control mutant, immunoprecipitated from 293T cells (UniProt Q9JKD8)
T2 sequence: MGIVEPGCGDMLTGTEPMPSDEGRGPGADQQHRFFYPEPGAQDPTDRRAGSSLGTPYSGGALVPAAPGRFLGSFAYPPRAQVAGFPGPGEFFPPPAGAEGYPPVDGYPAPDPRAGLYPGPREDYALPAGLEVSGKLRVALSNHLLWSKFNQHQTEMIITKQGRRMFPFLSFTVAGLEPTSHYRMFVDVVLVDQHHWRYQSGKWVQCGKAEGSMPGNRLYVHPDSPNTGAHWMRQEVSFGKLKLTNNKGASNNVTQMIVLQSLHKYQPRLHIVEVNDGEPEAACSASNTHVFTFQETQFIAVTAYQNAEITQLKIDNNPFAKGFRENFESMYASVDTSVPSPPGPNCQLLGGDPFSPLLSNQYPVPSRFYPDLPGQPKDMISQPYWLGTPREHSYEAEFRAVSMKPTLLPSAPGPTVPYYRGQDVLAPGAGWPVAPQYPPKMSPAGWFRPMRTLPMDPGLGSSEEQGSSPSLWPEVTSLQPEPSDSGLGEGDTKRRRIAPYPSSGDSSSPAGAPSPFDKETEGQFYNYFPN

[3] = biological target: T3, Flag-tagged T-bet S508A mutant, immunoprecipitated from 293T cells (UniProt Q9JKD8)
T3 sequence: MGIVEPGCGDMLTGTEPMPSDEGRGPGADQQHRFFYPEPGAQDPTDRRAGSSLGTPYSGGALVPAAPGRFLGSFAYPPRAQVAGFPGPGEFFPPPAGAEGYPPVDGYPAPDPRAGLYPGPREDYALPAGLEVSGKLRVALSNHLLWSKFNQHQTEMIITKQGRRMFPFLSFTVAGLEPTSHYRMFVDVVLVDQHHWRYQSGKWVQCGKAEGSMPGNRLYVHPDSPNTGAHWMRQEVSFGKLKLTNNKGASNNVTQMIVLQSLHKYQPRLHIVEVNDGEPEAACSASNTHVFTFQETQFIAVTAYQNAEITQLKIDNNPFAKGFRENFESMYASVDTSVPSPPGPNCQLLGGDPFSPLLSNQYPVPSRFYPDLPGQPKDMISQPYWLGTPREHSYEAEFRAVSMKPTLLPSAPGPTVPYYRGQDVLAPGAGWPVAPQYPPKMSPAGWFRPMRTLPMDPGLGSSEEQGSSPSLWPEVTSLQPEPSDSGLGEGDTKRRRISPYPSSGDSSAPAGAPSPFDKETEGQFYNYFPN

RelA (NF-kB p65) = conditions: ChIP real-time PCR; binding increase in T-bet-/- Th1 cells versus wt
[4] = biological target: endogenous RelA in mouse Th1 cells (mouse, UniProt Q04207 1-549); test: cell-based or functional assay
Chain of endogenous RelA in mouse Th1 cells (Q04207 whole entry): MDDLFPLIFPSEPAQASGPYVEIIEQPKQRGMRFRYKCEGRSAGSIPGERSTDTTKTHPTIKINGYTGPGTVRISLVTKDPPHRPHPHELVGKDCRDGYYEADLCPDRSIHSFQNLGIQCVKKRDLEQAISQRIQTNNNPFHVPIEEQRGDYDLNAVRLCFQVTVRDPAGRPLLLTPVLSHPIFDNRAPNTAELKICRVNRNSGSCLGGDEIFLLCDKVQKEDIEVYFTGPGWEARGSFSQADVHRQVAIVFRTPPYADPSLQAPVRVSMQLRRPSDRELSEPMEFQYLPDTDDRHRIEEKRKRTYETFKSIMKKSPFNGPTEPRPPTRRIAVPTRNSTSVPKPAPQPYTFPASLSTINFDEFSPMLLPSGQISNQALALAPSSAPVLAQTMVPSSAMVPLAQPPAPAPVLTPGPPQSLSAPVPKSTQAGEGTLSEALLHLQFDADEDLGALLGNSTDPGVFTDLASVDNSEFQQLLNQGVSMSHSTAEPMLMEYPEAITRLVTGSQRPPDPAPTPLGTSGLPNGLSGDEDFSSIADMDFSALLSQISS

Molecule: active ERK (recombinant)
in vitro phosphorylation of T-bet (γ-[32P]ATP, autoradiography) [1]: CKI, but not active ERK, phosphorylated T-bet protein in vitro

Molecule: casein kinase I (recombinant)
in vitro phosphorylation of T-bet (γ-[32P]ATP, autoradiography) [2]: CKI-mediated phosphorylation of the S508A mutant, but not the S498A control mutant, was dramatically reduced compared to wt
in vitro phosphorylation of T-bet (γ-[32P]ATP, autoradiography) [1]: CKI, but not active ERK, phosphorylated T-bet protein in vitro
in vitro phosphorylation of T-bet (γ-[32P]ATP, autoradiography) [3]: CKI-mediated phosphorylation of the S508A mutant, but not the S498A control mutant, was dramatically reduced compared to wt

Molecule: IL-2 promoter chromatin (ChIP amplicon)
binding signal (RelA (NF-kB p65)): 4.5 fold

Molecule: PKA (recombinant)
in vitro phosphorylation of T-bet (γ-[32P]ATP, autoradiography) [2]: PKA-induced phosphorylation was not different among the wt, S508A and S498A T-bet proteins
in vitro phosphorylation of T-bet (γ-[32P]ATP, autoradiography) [1]: T-bet was also phosphorylated by PKA but with 1000-fold lesser efficiency than CKI
in vitro phosphorylation of T-bet (γ-[32P]ATP, autoradiography) [3]: PKA-induced phosphorylation was not different among the wt, S508A and S498A T-bet proteins

Molecule: glycogen synthase kinase-3 (recombinant)
in vitro phosphorylation of T-bet by GSK-3 after prephosphorylation with CKI (γ-[32P]ATP) [2]: GSK-3 induced wt levels of phosphorylation in the S498A mutant
in vitro phosphorylation of T-bet by GSK-3 after prephosphorylation with CKI (γ-[32P]ATP) [1]: Hyperphosphorylation of T-bet by GSK-3 was apparent
in vitro phosphorylation of T-bet by GSK-3 after prephosphorylation with CKI (γ-[32P]ATP) [3]: GSK-3-mediated phosphorylation was markedly decreased in the S508A mutant

IL-2 promoter binding of RelA by ChIP with real-time PCR, T-bet-/- versus wt Th1 cells [4]: 4.5 fold
B1: endogenous T-bet in mouse Th1 cells (other, UniProt Q9JKD8 1-530, looked up)
chain: MGIVEPGCGDMLTGTEPMPSDEGRGPGADQQHRFFYPEPGAQDPTDRRAGSSLGTPYSGGALVPAAPGRFLGSFAYPPRAQVAGFPGPGEFFPPPAGAEGYPPVDGYPAPDPRAGLYPGPREDYALPAGLEVSGKLRVALSNHLLWSKFNQHQTEMIITKQGRRMFPFLSFTVAGLEPTSHYRMFVDVVLVDQHHWRYQSGKWVQCGKAEGSMPGNRLYVHPDSPNTGAHWMRQEVSFGKLKLTNNKGASNNVTQMIVLQSLHKYQPRLHIVEVNDGEPEAACSASNTHVFTFQETQFIAVTAYQNAEITQLKIDNNPFAKGFRENFESMYASVDTSVPSPPGPNCQLLGGDPFSPLLSNQYPVPSRFYPDLPGQPKDMISQPYWLGTPREHSYEAEFRAVSMKPTLLPSAPGPTVPYYRGQDVLAPGAGWPVAPQYPPKMSPAGWFRPMRTLPMDPGLGSSEEQGSSPSLWPEVTSLQPEPSDSGLGEGDTKRRRISPYPSSGDSSSPAGAPSPFDKETEGQFYNYFPN
modifications: phosphoserine at S508 found by mass spectrometry in primary Th1 cells

Reference: patent US20070128661A1 (Harvard, published 2007)
